Experimental findings from US11028167 (CENTIVAX, dated 2021) are described below.

Assay in all cases: SPR, scFv captured by anti-V5, RBD analyte
In general terms: SPR reads the build-up and loss of mass on a sensor chip optically.

Assay [1] has as its target SARS-CoV-1 Receptor Binding Domain (RBD) protein (SARS-CoV-1, UniProt P59594 306-527).
The target in assay [2] is MERS Receptor Binding Domain (RBD) protein (Middle East Respiratory Syndrome (MERS) …, UniProt K9N5Q8 367-606).
Assay [3] has as its target SARS-CoV-2 Receptor Binding Domain (RBD) protein (SARS-CoV-2, UniProt P0DTC2 319-541).

B1: COVID19_P06_G10 (scFv, V domains shown)
VH: QVQLVQSGAEVKKPGASVKVSCKASGYDFINYYIHWVRQAPGQGLEWMGIIDPSGGSTSYAQKFQGRVTMTRDTSTSTVYMELSSLRSEDTAVYYCTREGIPQLLRTLDYWGQGTLVTVSS
VL: DIQMTQSPSSLSASVGDRVTITCRASQDISDSLAWYQQKPGKAPKLLIYAASSLQSGVPSRFSGSGSGTDFTLTISSLQPEDFATYYCQQSYSRLAWTFGGGTKVEIKR
For the molecule B1, the binding result in assay [1] is recorded as “no binding (tested: 300 nM)”. The binding result in assay [2] is listed as “no binding (tested: 300 nM)”. In assay [3], this molecule returned a Kd of 2.06 nM, a koff of 0.00068 s⁻¹ and a kon of 330000 M⁻¹ s⁻¹.

B2: COVID19_R02_D11 (scFv, V domains shown)
VH: QVQLVQSGAEVKKPGASVKVSCKASGYTFTENEMHWVRQAPGQGLEWMGIINPSAGSTSYAQKFQGRVTMTRDTSTSTVYMELSSLRSEDTAVYYCTREGIPQLLRTLDYWGQGTLVTVSS
VL: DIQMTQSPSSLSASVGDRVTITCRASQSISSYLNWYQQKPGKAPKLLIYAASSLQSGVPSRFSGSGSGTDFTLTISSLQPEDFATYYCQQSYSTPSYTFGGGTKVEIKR
Turning to B2, the binding result in assay [1] is “no binding (tested: 300 nM)”. Besides, in assay [2], the binding result is reported as “no binding (tested: 300 nM)”. In assay [3], binding was put at a Kd of 4.9 nM, the koff turned out to be 0.00069 s⁻¹ and the kon was determined as 140000 M⁻¹ s⁻¹.

B3: COVID19_R02_F04 (scFv, V domains shown)
VH: QVQLVQSGAEVKKPGASVKVSCKASGYRFTSYEVNWVRQAPGQGLEWMGIINPSGGSTSYAQKFQGRVTMTRDTSTSTVYMELSSLRSEDTAVYYCTREGIPQLLWALDYWGQGTLVTVSS
VL: not shown
Consider B3, for which, in assay [3], the Kd came to 6.4 nM, the dissociation rate constant (koff) is 0.00036 s⁻¹ and the kon amounted to 56000 M⁻¹ s⁻¹.

B4: COVID19_R02_D07 (scFv, V domains shown)
VH: QVQLVQSGAEVKKPGASVKVSCKASGYTFTENEMHWVRQAPGQGLEWMGIINPSGGSTSYAQKFQGRVTMTRDTSTSTVYMELSSLRSEDTAVYYCTREGPPQLLRTLDYWGQGTLVTVSS
VL: DIQMTQSPSSLSASVGDRVTITCRASQSISSYLNWYQQKPGKAPKLLIYHTSNLETGVPSRFSGSGSGTDFTLTISSLQPEDFATYYCQQSYSFPATTFGGGTKVEIKR
For the molecule B4, the binding result in assay [1] was “no binding (tested: 300 nM)”. In addition, in assay [2], the binding result is on record as “no binding (tested: 300 nM)”. In assay [3], this molecule came in with a Kd of 6.3 nM, a koff of 0.00043 s⁻¹ and a kon of 68000 M⁻¹ s⁻¹.

B5: COVID19_P06_C02 (scFv, V domains shown)
VH: QVQLVQSGAEVKKPGASVKVSCKASGYTFTENEMHWVRQAPGQGLEWMGIINPSGGSTSYAQKFQGRVTMTRDTSTSTVYMELSSLRSEDTAVYYCTREGIPWWLRTLDYWGQGTLVTVSS
VL: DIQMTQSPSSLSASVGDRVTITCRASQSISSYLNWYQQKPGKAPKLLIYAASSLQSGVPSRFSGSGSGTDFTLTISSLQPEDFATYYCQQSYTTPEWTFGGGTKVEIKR
notes: also called COVID19_P06_CO2
As for B5, in assay [1], the binding result was “no binding (tested: 300 nM)”. Moreover, the binding result in assay [2] was “no binding (tested: 300 nM)”. In assay [3], this molecule displayed a Kd of 6.15 nM, a koff of 0.000438 s⁻¹ and a kon of 71200 M⁻¹ s⁻¹.

B6: COVID19_R02_C11 (scFv, V domains shown)
VH: QVQLVQSGAEVKKPGASVKVSCKASGYTFSDYYMHWVRQAPGQGLEWMGIIDPSGGSASYAQKFQGRVTMTRDTSTSTVYMELSSLRSEDTAVYYCTREGIPQLLRTLDYWGQGTLVTVSS
VL: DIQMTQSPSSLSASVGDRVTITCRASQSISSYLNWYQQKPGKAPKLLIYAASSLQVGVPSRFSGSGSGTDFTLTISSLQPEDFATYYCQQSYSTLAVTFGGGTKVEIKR
Regarding B6, in assay [1], the binding result is listed as “no binding (tested: 300 nM)”. Besides, the binding result in assay [2] is on record as “no binding (tested: 300 nM)”. In assay [3], this molecule registered a Kd of 12.8 nM, a koff of 0.0011 s⁻¹ and a kon of 86000 M⁻¹ s⁻¹.

B7: COVID19_R02_A04 (scFv, V domains shown)
VH: QVQLVQSGAEVKKPGASVKVSCKASGYTFTENEMHWVRQAPGQGLEWMGIINPDGGSTSYAQKFQGRVTMTRDTSTSTVYMELSSLRSEDTAVYYCTREGIPQLLRTLDYWGQGTLVTVSS
VL: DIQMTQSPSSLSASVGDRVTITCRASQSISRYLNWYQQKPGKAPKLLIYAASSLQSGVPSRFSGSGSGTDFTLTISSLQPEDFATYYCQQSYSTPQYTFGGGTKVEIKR
Consider B7, for which, in assay [1], the binding result is reported as “no binding (tested: 300 nM)”. The binding result in assay [2] is given as “no binding (tested: 300 nM)”. In addition, in assay [3], the Kd turned out to be 12.7 nM, the koff came out at 0.00069 s⁻¹ and the kon worked out at 54400 M⁻¹ s⁻¹.

B8: COVID19_R02_E11 (scFv, V domains shown)
VH: QVQLVQSGAEVKKPGASVKVSCKASGYTFTENEMHWVRQAPGQGLEWMGIINPSGGSTSYAQKFQGRVTMTRDTSTSTVYMELSSLRSEDTAVYYCTREGIPQLLRTLDYWGQGTLVTVSS
VL: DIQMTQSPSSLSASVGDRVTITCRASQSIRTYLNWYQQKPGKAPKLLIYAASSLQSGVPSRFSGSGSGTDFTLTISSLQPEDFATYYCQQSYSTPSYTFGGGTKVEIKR
notes: also called COVID19_C R02_E11
With B8, the binding result in assay [1] was “no binding (tested: 300 nM)”. Further, the binding result in assay [2] is “no binding (tested: 300 nM)”. Further, in assay [3], the dissociation constant (Kd) worked out at 7.9 nM, the koff is 0.00079 s⁻¹ and the kon was found to be 100000 M⁻¹ s⁻¹.

B9: COVID19_R02_F08 (scFv, V domains shown)
VH: QVQLVQSGAEVKKPGASVKVSCKASGYTFGNYAINWVRQAPGQGLEWMGAIYPGNSDTTYNQKFQGRVTMTRDTSTSTVYMELSSLRSEDTAVYYCARDTVMGGMDVWGQGTLVTVSS
VL: DIQMTQSPSSLSASVGDRVTITCRASQEISGYLSWYQQKPGKAPKLLIYAASSLQSGVPSRFSGSGSGTDFTLTISSLQPEDFATYYCQQYVSYPWTFGGGTKVEIKR
With B9, the binding result in assay [1] is “no binding (tested: 300 nM)”. Besides, in assay [2], the binding result is “no binding (tested: 300 nM)”. In assay [3], this molecule showed a Kd of 9.1 nM, a koff of 0.00071 s⁻¹ and a kon of 78000 M⁻¹ s⁻¹.

B10: COVID19_P06_G11 (scFv, V domains shown)
VH: QVQLVQSGAEVKKPGASVKVSCKASGNTFTGYYMHWVRQAPGQGLEWMGAIYPGGSDTSYNQKFQGRVTMTRDTSTSTVYMELSSLRSEDTAVYYCTREGIPQLAWTLDYWGQGTLVTVSS
VL: DIQMTQSPSSLSASVGDRVTITCRASQSMSSYLNWYQQKPGKAPKLLIYAASSLQSGVPSRFSGSGSGTEFTLTISSLQPEDIATYYCQQFGSFGGGTKVEIKR
B10: the binding result in assay [1] is “no binding (tested: 300 nM)”. For the same molecule, the binding result in assay [2] was “no binding (tested: 300 nM)”. Also, in assay [3], the affinity, expressed as Kd, was 21.5 nM; the koff was determined as 0.0014 s⁻¹; the kon came to 65000 M⁻¹ s⁻¹.

B11: COVID19_P06_G03 (scFv, V domains shown)
VH: QVQLVQSGAEVKKPGASVKVSCKASGYTFTENEMHWVRQAPGQGLEWMGVVNPSGGYTSYAQKFQGRVTMTRDTSTSTVYMELSSLRSEDTAVYYCTREGIPQLLRSQDYWGQGTLVTVSS
VL: not shown
In the case of B11, the binding result in assay [1] and in assay [2] was “no binding (tested: 300 nM)” throughout.

B12: COVID19_R02_D03 (scFv, V domains shown)
VH: QVQLVQSGAEVKKPGASVKVSCKASGYTFTEYEMHWVRQAPGQGLEWMGIINPSGGYTNYAQKFQGRVTMTRDTSTSTVYMELSSLRSEDTAVYYCTREGIPQVLRTLDYWGQGTLVTVSS
VL: DIQMTQSPSSLSASVGDRVTITCRASQSISSWLAWYQQKPGKAPKLLIYAASSLQSGVPSRFSGSGSGTDFTLTISSLQPEDFATYYCQQSYSNPYTFGGGTKVEIKR
In the case of B12, the binding result in assay [1] and in assay [2] was “no binding (tested: 300 nM)” throughout.

B13: COVID19_R02_B06 (scFv, V domains shown)
VH: QVQLVQSGAEVKKPGASVKVSCKASGYTFTENEMHWVRQAPGQGLEWMGVINPSGGYTSYAQKFQGRVTMTRDTSTSTVYMELSSLRSEDTAVYYCTREGIPQLLRHLDYWGQGTLVTVSS
VL: DIQMTQSPSSLSASVGDRVTITCRASQSISGYLSWYQQKPGKAPKLLIYAASSLQSGVPSRFSGSGSWTDFTLTISSLQPEDFATYYCQQSYSTPLTFGGGTKVEIKR
In the case of B13, the binding result in assay [1] and in assay [2] was “no binding (tested: 300 nM)” in each case.

B14: COVID19_R02_F07 (scFv, V domains shown)
VH: QVQLVQSGAEVKKPGASVKVSCKASGYTFTENEMHWVRQAPGQGLEWMGIINTSGGYTNYAQKFQGRVTMTRDTSTSTVYMELSSLRSEDTAVYYCTREGIPQLLRTLDYWGQGTLVTVSS
VL: DIQMTQSPSSLSASVGDRVTITCRASQSISSWLAWYQQKPGKAPKLLIYAASSLQSGVPSRFSGSGSGTDFTLTISSLQPEDFATYYCQQSYSNPLHFGGGTKVEIKR
Take B14: the binding result in assay [1] and in assay [2] was “no binding (tested: 300 nM)” in each case.

B15: COVID19_R02_F06 (scFv, V domains shown)
VH: QVQLVQSGAEVKKPGASVKVSCKASGYTFTENEMHWVRQAPGQGLEWMGIINPNGGGTYYAQKFQGRVTMTRDTSTSTVYMELSSLRSEDTAVYYCTREGIPQLLRTLDYWGQGTLVTVSS
VL: DIQMTQSPSSLSASVGDRVTITCRASQGIRNDLGWYQQKPGKAPKLLIYAASSLQSGVPSRFSGSGSGTDFTLTISSLQPEDFATYYCQQTYSAPYTFGGGTKVEIKR
As for B15, the binding result in assay [1] and in assay [2] was “no binding (tested: 300 nM)” each time.

B16: COVID19_R02_A05 (scFv, V domains shown)
VH: QVQLVQSGAEVKKPGASVKVSCKASGYTFTENEMHWVRQAPGQGLEWMGMINPSGGYTNYAQEFQGRVTMTRDTSTSTVYMELSSLRSEDTAVYYCTREGIPQLLRTLDYWGQGTLVTVSS
VL: DIQMTQSPSSLSASVGDRVTITCRASQSIYRWLAWYQQKPGKAPKLLIYAASSLQSGVPSRFSGSGSGTEFTLTISSLQPEDFATYYCQQSYGNPYTFGGGTKVEIKR
As for B16, the binding result in assay [1] and in assay [2] was “no binding (tested: 300 nM)” each time.

B17: COVID19_P06_F05 (scFv, V domains shown)
VH: QVQLVQSGAEVKKPGASVKVSCKASGYTFASYDVNWVRQAPGQGLEWMGIINPRSGDANYAQKFQGRVTMTRDTSTSTVYMELSSLRSEDTAVYYCTRERHPQLLMPLDYWGQGTLVTVSS
VL: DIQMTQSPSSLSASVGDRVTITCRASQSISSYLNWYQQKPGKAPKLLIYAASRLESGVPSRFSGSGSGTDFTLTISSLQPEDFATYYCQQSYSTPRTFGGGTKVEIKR
In the case of B17, the binding result in assay [1] is “no binding (tested: 300 nM)”. Also, in assay [2], the binding result was “no binding (tested: 300 nM)”. Further, in assay [3], the Kd worked out at 0.9 nM, the koff came to 5.7e-05 s⁻¹ and the kon came to 61900 M⁻¹ s⁻¹.

What is called Kd is the free concentration of one partner at which half of the binding sites on the other are occupied at equilibrium, for simple one-to-one binding. Usually koff stands for a measure of how fast the partners let go of each other. Higher therefore signals a short-lived complex. As a reminder, the kon is the rate constant with which the complex forms.
